Assays:
HeLa Kyoto [1] = experiment: solubility in G1/S (NP-40 vs SDS abundance) (log2 ratio); higher = more soluble; settings: cell cycle stage: G1/S
HeLa Kyoto [2] = experiment: melting temperature (median over replicates), in situ; higher = more thermally stable
HeLa Kyoto [3] = experiment: thermal stability score vs G1/S (z-score of summed log2 fold changes over temperatures); higher = more thermally stable than in G1/S
HeLa Kyoto [4] = experiment: solubility change mitosis vs G1/S (difference of NP-40 vs SDS log2 ratios) (log2 ratio difference); higher = more soluble in mitosis
[5] = cell cycle stage: early G1 (4.5 h after nocodazole release)
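Wherever melting temperature (median over replicates), in situ is given: HeLa Kyoto cells synchronized by double thymidine or nocodazole block, proteins quantified by TMT10plex mass spectrometry, three independent biological replicates.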
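Wherever solubility change mitosis vs G1/S (difference of NP-40 vs SDS log2 ratios) is given: synchronized HeLa Kyoto cells (double thymidine block for G1/S, nocodazole release for mitosis), protein amounts in NP-40 versus SDS lysates quantified by mass spectrometry, three biological replicates.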
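Wherever solubility in G1/S (NP-40 vs SDS abundance) is given: HeLa Kyoto cells arrested at G1/S by double thymidine block, proteins quantified by TMT10plex mass spectrometry in mild NP-40 versus SDS extracts, three biological replicates.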
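Wherever thermal stability score vs G1/S (z-score of summed log2 fold changes over temperatures) is given: synchronized HeLa Kyoto cells, proteins quantified by TMT10plex mass spectrometry, three biological replicates, mitosis taken 0.5 h after nocodazole release, G1/S directly after double thymidine block.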

Sequence	solubility in G1/S (log2) (HeLa Kyoto [1])	melting temperature (HeLa Kyoto [2]; cell cycle stage: G1/S)	melting temperature (HeLa Kyoto [2]; cell cycle stage: mitosis)	thermal stability score (HeLa Kyoto [3]; [5])	thermal stability score (HeLa Kyoto [3]; cell cycle stage: mitosis)	solubility change mitosis (log2) (HeLa Kyoto [4])
MLSALARPASAALRRSFSTSAQNNAKVAVLGASGGIGQPLSLLLKNSPLVSRLTLYDIAHTPGVAADLSHIETKAAVKGYLGPEQLPDCLKGCDVVVIPAGVPRKPGMTRDDLFNTNATIVATLTAACAQHCPEAMICVIANPVNSTIPITAEVFKKHGVYNPNKIFGVTTLDIVRANTFVAELKGLDPARVNVPVIGGHAGKTIIPLISQCTPKVDFPQDQLTALTGRIQEAGTEVVKAKAGAGSATLSMAYAGARFVFSLVDAMNGKEGVVECSFVKSQETECTYFSTPLLLGKKGIEKNLGIGKVSSFEEKMISDAIPELKASIKKGEDFVKTLK [MDH2]	0.383	56.9 °C	57.2 °C	-0.843	-1.62	-0.0422
MLSEVLLVSAPGKVILHGEHAVVHGKVALAVSLNLRTFLRLQPHSNGKVDLSLPNIGIKRAWDVARLQSLDTSFLEQGDVTTPTSEQVEKLKEVAGLPDDCAVTERLAVLAFLYLYLSICRKQRALPSLDIVVWSELPPGAGLGSSAAYSVCLAAALLTVCEEIPNPLKDGDCVNRWTKEDLELINKWAFQGERMIHGNPSGVDNAVSTWGGALRYHQGKISSLKRSPALQILLTNTKVPRNTRALVAGVRNRLLKFPEIVAPLLTSIDAISLECERVLGEMGEAPAPEQYLVLEELIDMNQHHLNALGVGHASLDQLCQVTRARGLHSKLTGAGGGGCGITLLKPGLEQPEVEATKQALTSCGFDCLETSIGAPGVSIHSATSLDSRVQQALDGL [MVK]	0.173	53.8 °C	54.3 °C	-0.0917	0.34	0.006
MLSLDFLDDVRRMNKRQLYYQVLNFGMIVSSALMIWKGLMVITGSESPIVVVLSGSMEPAFHRGDLLFLTNRVEDPIRVGEIVVFRIEGREIPIVHRVLKIHEKQNGHIKFLTKGDNNAVDDRGLYKQGQHWLEKKDVVGRARGFVPYIGIVTILMNDYPKFKYAVLFLLGLFVLVHRE [SEC11A]	-0.21	53.2 °C	52.3 °C	9.24	7.47	-0.117
MLSLQYPDVYRDETAVQDYHGHKICDPYAWLEDPDSEQTKAFVEAQNKITVPFLEQCPIRGLYKERMTELYDYPKYSCHFKKGKRYFYFYNTGLQNQRVLYVQDSLEGEARVFLDPNILSDDGTVALRGYAFSEDGEYFAYGLSASGSDWVTIKFMKVDGAKELPDVLERVKFSCMAWTHDGKGMFYNSYPQQDGKSDGTETSTNLHQKLYYHVLGTDQSEDILCAEFPDEPKWMGGAELSDDGRYVLLSIREGCDPVNRLWYCDLQQESSGIAGILKWVKLIDNFEGEYDYVTNEGTVFTFKTNRQSPNYRVINIDFRDPEESKWKVLVPEHEKDVLEWIACVRSNFLVLCYLHDVKNILQLHDLTTGALLKTFPLDVGSIVGYSGQKKDTEIFYQFTSFLSPGIIYHCDLTKEELEPRVFREVTVKGIDASDYQTVQIFYPSKDGTKIPMFIVHKKGIKLDGSHPAFLYGYGGFNISITPNYSVSRLIFVRHMGGILAVANIRGGGEYGETWHKGGILANKQNCFDDFQCAAEYLIKEGYTSPKRLTINGGSNGGLLVAACANQRPDLFGCVIAQVGVMDMLKFHKYTIGHAWTTDYGCSDSKQHFEWLVKYSPLHNVKLPEADDIQYPSMLLLTADHDDRVVPLHSLKFIATLQYIVGRSRKQSNPLLIHVDTKAGHGAGKPTAKVIEEVSDMFAFIARCLNVDWIP [PREP]	0.00417	49.3 °C	49.5 °C	-0.0879	0.619	-0.186
MLSLRVPLAPITDPQQLQLSPLKGLSLVDKENTPPALSGTRVLASKTARRIFQEPTEPKTKAAAPGVEDEPLLRENPRRFVIFPIEYHDIWQMYKKAEASFWTAEEVDLSKDIQHWESLKPEERYFISHVLAFFAASDGIVNENLVERFSQEVQITEARCFYGFQIAMENIHSEMYSLLIDTYIKDPKEREFLFNAIETMPCVKKKADWALRWIGDKEATYGERVVAFAAVEGIFFSGSFASIFWLKKRGLMPGLTFSNELISRDEGLHCDFACLMFKHLVHKPSEERVREIIINAVRIEQEFLTEALPVKLIGMNCTLMKQYIEFVADRLMLELGFSKVFRVENPFDFMENISLEGKTNFFEKRVGEYQRMGVMSSPTENSFTLDADF [RRM2]	-0.239	56.8 °C	56.4 °C	-6.63	-8.23	0.14

Source: the supplement of paper PMC5998384
